Laboratory results reported in publication doi:10.1101/2021.05.16.444192.

Biological target: neurokinin 1 receptor (human) (UniProt P25103)
Chain of UniProt P25103 (P25103 whole entry): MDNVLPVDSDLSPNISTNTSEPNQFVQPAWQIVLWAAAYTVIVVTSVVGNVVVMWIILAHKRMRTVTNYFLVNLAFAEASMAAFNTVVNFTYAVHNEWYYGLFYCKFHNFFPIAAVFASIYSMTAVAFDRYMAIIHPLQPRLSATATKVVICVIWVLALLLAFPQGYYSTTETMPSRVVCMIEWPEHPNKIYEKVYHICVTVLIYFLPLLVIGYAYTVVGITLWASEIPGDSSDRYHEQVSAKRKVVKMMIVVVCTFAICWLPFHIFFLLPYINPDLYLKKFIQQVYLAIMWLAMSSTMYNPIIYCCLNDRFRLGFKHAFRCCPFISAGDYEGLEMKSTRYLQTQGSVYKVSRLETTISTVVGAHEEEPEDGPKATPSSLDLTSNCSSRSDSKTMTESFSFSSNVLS

cAMP accumulation at wild-type NK1R, potency compared to SP: 16 fold
Substance: Substance P 6-11 (peptide)
